Data taken from patent publication US20220144956A1 (published 2022).
Changes are numbered by the printed parent chain.

B1: H1 L1.12 XENP34575 (antibody, V domains shown)
VH: QLQVQESGPGLVKPSETLSLTCTVSGGSISNSYFSWGWIRQPPGKGLEWIGSFYYGEKTYYNPSLKSRATISIDTSKSQFSLKLSSVTAADTAVYYCPRGPTMIRGVIDSWGQGTLVTVSS
VL: EIVLTQSPATLSLSPGERATLSCRASQSVRTYLAWYQQKPGQAPRLLIYDASNRATGIPARFSGSGSGTDFTLTISSLEPEDFAVYYCQQRSNWPPTFGQGTKVEIK
B2: H1 L1.31 XENP34594 (antibody, V domains shown)
VH: B1 VH
VL: B1 VL with T31S, S77R
B3: H1 L1.8 XENP34571 (antibody, V domains shown)
VH: B1 VH
VL: B1 VL with R30K, T31S
B4: H1 L1.35 XENP34598 (antibody, V domains shown)
VH: B1 VH
VL: B1 VL with T31S, V85T
B5: H1 L1.42 XENP34605 (antibody, V domains shown)
VH: B1 VH
VL: B1 VL with T31S, S92G
B6: H1 L1.39 XENP34602 (antibody, V domains shown)
VH: B1 VH
VL: B1 VL with T31S, R91Q
B7: H1 L1.33 XENP34596 (antibody, V domains shown)
VH: B1 VH
VL: B1 VL with T31S, P80S
B8: H1 L1.29 XENP34592 (antibody, V domains shown)
VH: B1 VH
VL: B1 VL with T31S, A60D
B9: H1 L1.23 XENP34586 (antibody, V domains shown)
VH: B1 VH
VL: B1 VL with T31S, N53D
B10: H1 L1.14 XENP34577 (antibody, V domains shown)
VH: B1 VH
VL: B1 VL with T31S, Y32N
B11: H1 L1.37 XENP34600 (antibody, V domains shown)
VH: B1 VH
VL: B1 VL with T31S, R91K
B12: H1 L1.40 XENP34603 (antibody, V domains shown)
VH: B1 VH
VL: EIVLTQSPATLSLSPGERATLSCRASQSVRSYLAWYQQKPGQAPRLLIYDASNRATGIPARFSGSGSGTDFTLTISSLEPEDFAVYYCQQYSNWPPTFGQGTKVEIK
B13: H1 L1.17 XENP34580 (antibody, V domains shown)
VH: B1 VH
VL: B1 VL with T31S, A34T
B14: H1 L1.16 XENP34579 (antibody, V domains shown)
VH: B1 VH
VL: B1 VL with T31S, A34S
B15: H1 L1.25 XENP34588 (antibody, V domains shown)
VH: B1 VH
VL: B1 VL with T31S, N53T
B16: H1 L1.22 XENP34585 (antibody, V domains shown)
VH: B1 VH
VL: B1 VL with T31S, D50S
B17: H1 L1.15 XENP34578 (antibody, V domains shown)
VH: B1 VH
VL: B1 VL with T31S, A34N
B18: H1 L1.13 XENP34576 (antibody, V domains shown)
VH: B1 VH
VL: B1 VL with T31S, Y32H
B19: H1 L1.38 XENP34601 (antibody, V domains shown)
VH: B1 VH
VL: B1 VL with T31S, R91S
B20: H1 L1.18 XENP34581 (antibody, V domains shown)
VH: B1 VH
VL: B1 VL with T31S, Q42K
B21: H1 L1.11 XENP34574 (antibody, V domains shown)
VH: B1 VH
VL: B1 VL with T31N
B22: H1 L1.32 XENP34595 (antibody, V domains shown)
VH: B1 VH
VL: B1 VL with T31S, E79Q
B23: H1 L1.10 XENP34573 (antibody, V domains shown)
VH: B1 VH
VL: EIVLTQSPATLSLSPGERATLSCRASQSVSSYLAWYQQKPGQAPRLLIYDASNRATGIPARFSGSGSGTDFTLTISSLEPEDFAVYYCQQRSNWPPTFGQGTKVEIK
B24: H1 L1.27 XENP34590 (antibody, V domains shown)
VH: B1 VH
VL: B1 VL with T31S, G57S
B25: H1 L1.20 XENP34583 (antibody, V domains shown)
VH: B1 VH
VL: B1 VL with T31S, D50E
B26: H1 L1.28 XENP34591 (antibody, V domains shown)
VH: B1 VH
VL: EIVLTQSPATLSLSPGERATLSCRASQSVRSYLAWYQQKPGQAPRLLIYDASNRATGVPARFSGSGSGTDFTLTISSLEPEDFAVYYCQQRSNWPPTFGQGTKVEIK
B27: H1 L1.9 XENP34572 (antibody, V domains shown)
VH: B1 VH
VL: B1 VL with R30Q, T31S
B28: H1 L1.41 XENP34604 (antibody, V domains shown)
VH: B1 VH
VL: B1 VL with T31S, S92A
B29: H1 L1.19 XENP34582 (antibody, V domains shown)
VH: B1 VH
VL: B1 VL with T31S, Q42L
B30: H1 L1.21 XENP34584 (antibody, V domains shown)
VH: B1 VH
VL: B1 VL with T31S, D50G
B31: H1 L1.36 XENP34599 (antibody, V domains shown)
VH: B1 VH
VL: B1 VL with T31S, R91E
B32: H1 L1.44 XENP34607 (antibody, V domains shown)
VH: B1 VH
VL: B1 VL with T31S, S92T
B33: H1 L1.26 XENP34589 (antibody, V domains shown)
VH: B1 VH
VL: B1 VL with T31S, T56S
B34: H1 L1.30 XENP34593 (antibody, V domains shown)
VH: B1 VH
VL: B1 VL with T31S, D70E
B35: H1.17 L1 XENP34473 (antibody, V domains shown)
VH: B1 VH with N31R
VL: B1 VL with T31S
B36: H1.31 L1 XENP34487 (antibody, V domains shown)
VH: B1 VH with W36I
VL: B1 VL with T31S
B37: H1.26 L1 XENP34482 (antibody, V domains shown)
VH: B1 VH with F34S
VL: B1 VL with T31S
B38: H1.3 L1 XENP34459 (antibody, V domains shown)
VH: B1 VH with L2V, V4L
VL: B1 VL with T31S
B39: H1.11 L1 XENP34467 (antibody, V domains shown)
VH: B1 VH with N31D
VL: B1 VL with T31S
B40: H1.20 L1 XENP34476 (antibody, V domains shown)
VH: B1 VH with S32T
VL: B1 VL with T31S
B41: H1.29 L1 XENP34485 (antibody, V domains shown)
VH: B1 VH with S35T
VL: B1 VL with T31S
B42: H1.16 L1 XENP34472 (antibody, V domains shown)
VH: B1 VH with N31Q
VL: B1 VL with T31S
B43: H1.5 L1 XENP34461 (antibody, V domains shown)
VH: B1 VH with P9S
VL: B1 VL with T31S
B44: H1.33 L1 XENP34489 (antibody, V domains shown)
VH: B1 VH with G37A
VL: B1 VL with T31S
B45: H1 L1 WT XENP28298 (antibody, V domains shown)
VH: B1 VH
VL: B1 VL with T31S
B46: H1.9 L1 XENP34465 (antibody, V domains shown)
VH: B1 VH with I29F
VL: B1 VL with T31S
B47: H1.18 L1 XENP34474 (antibody, V domains shown)
VH: B1 VH with S32A
VL: B1 VL with T31S

Biological target: T1, human TGFßRII (antigen of the Octet experiments) (human, UniProt P37173 23-166)
T1 sequence (P37173 23-166): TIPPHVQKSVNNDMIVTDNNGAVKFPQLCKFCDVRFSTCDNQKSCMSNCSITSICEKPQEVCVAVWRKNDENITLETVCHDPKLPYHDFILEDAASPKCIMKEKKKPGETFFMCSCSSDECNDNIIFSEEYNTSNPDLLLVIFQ
Assay: BLI (Octet)

Kd [nM] | Binder
0.539 | B1
0.706 | B2
1.11 | B3
0.344 | B4
2.94 | B5
21 | B6
0.873 | B7
0.589 | B8
0.479 | B9
1.26 | B10
2.87 | B11
23.1 | B12
0.622 | B13
0.464 | B14
0.921 | B15
0.782 | B16
2.48 | B17

Kd [nM] | Binder
1.19 | B18
24.5 | B19
0.831 | B20
0.597 | B21
1 | B22
10.7 | B23
0.92 | B24
2.24 | B25
0.891 | B26
16.4 | B27
2.49 | B28
0.905 | B29
0.429 | B30
59.3 | B31
2.03 | B32
0.99 | B33
0.668 | B34

Biological target: T1, human TGFßRII (antigen of the Octet …)
Assay: BLI (Octet)
Remark: another data set of the same source

Kd [nM] | Binder
0.292 | B35
7.28 | B36
0.273 | B37
0.001 | B38
0.419 | B39
0.559 | B40
1.79 | B41
0.407 | B42
0.245 | B43
0.414 | B44
0.001 | B45
0.496 | B46
0.205 | B47
